The values that follow come from PMC2941729 (Molecular Microbiology, 2010).

The data set deals with the molecule itself. The data set can be described thus: SEC. A general note: In gel filtration, larger molecules generally elute earlier.

B1: G266DΔGAF–His (domain or fragment, Escherichia coli K12, UniProt P37013 171-504, looked up)
chain: MLPGDATPFEAVKQTQMIGLSPGMTQLKKEIEIVAASDLNVLISGETGTGKELVAKAIHEASPRAVNPLVYLNCAALPESVAESELFGHVKGAFTDAISNRSGKFEMADNGTLFLDEIGELSLALQAKLLRVLQYGDIQRVGDDRCLRVDVRVLAATNRDLREEVLAGRFRADLFHRLSVFPLSVPPLRERGDDVILLAGYFCEQCRLRQGLSRVVLSAGARNLLQHYSFPGNVRELEHAIHRAVVLARATRSGDEVILEAQHFAFPEVTLPTPEVAAVPVVKQNLREATEAFQRETIRQALAQNHHNWAACARMLETDVANLHRLAKRLGLKD
On to B1, for which the binding result is on record as “binds”.
